# Measured values as given in IntAct's records for PubMed 30721249.
# B1: Oxysterol-binding protein-related protein 1 (Homo sapiens), Q9BXW6 (parent)
# chain: MNTEAEQQLLHHARNGNAEEVRQLLETMARNEVIADINCKGRSKSNLGWTPLHLACYFGHRQVVQDLLKAGAEVNVLNDMGDTPLHRAAFTGRKELVMLLLEYNADTTIVNGSGQTAKEVTHAEEIRSMLEAVERTQQRKLEELLLAAAREGKTTELTALLNRPNPPDVNCSDQLGNTPLHCAAYRAHKQCALKLLRSGADPNLKNKNDQKPLDLAQGAEMKHILVGNKVIYKALKRYEGPLWKSSRFFGWRLFWVVLEHGVLSWYRKQPDAVHNIYRQGCKHLTQAVCTVKSTDSCLFFIKCFDDTIHGFRVPKNSLQQSREDWLEAIEEHSAYSTHYCSQDQLTDEEEEDTVSAADLKKSLEKAQSCQQRLDREISNFLKMIKECDMAKEMLPSFLQKVEVVSEASRETCVALTDCLNLFTKQEGVRNFKLEQEQEKNKILSEALETLATEHHELEQSLVKGSPPASILSEDEFYDALSDSESERSLSRLEAVTARSFEEEGEHLGSRKHRMSEEKDCGGGDALSNGIKKHRTSLPSPMFSRNDFSIWSILRKCIGMELSKITMPVIFNEPLSFLQRLTEYMEHTYLIHKASSLSDPVERMQCVAAFAVSAVASQWERTGKPFNPLLGETYELVRDDLGFRLISEQVSHHPPISAFHAEGLNNDFIFHGSIYPKLKFWGKSVEAEPKGTITLELLEHNEAYTWTNPTCCVHNIIVGKLWIEQYGNVEIINHKTGDKCVLNFKPCGLFGKELHKVEGYIQDKSKKKLCALYGKWTECLYSVDPATFDAYKKNDKKNTEEKKNSKQMSTSEELDEMPVPDSESVFIIPGSVLLWRIAPRPPNSAQMYNFTSFAMVLNEVDKDMESVIPKTDCRLRPDIRAMENGEIDQASEEKKRLEEKQRAARKNRSKSEEDWKTRWFHQGPNPYNGAQDWIYSGSYWDRNYFNLPDIY
# Variants of: B1
# Conditions: with rab7a_human RAB7A
row,Variant,effect of a mutation on the interaction
1,F58E,disrupting interaction strength
